Reference: the supplement of paper PMC9112550, “Optimization of the antimicrobial peptide Bac7 by deep mutational scanning” (BMC Biology, 2022)

What follows are sequences tested on Escherichia coli TOP10 (assay: shrunken log2 fold change of peptide-encoding DNA abundance (4.5 h post-induction vs induction); higher = less antimicrobial activity (less host growth inhibition)). Details: time post-induction: 4.5 h; library: site-saturation at positions 5, 18, 19, 20.
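Note: peptides expressed intracellularly from a pBAD plasmid library in pooled LB shake-flask culture, induced with 0.3% L-arabinose, DNA abundance read by NGS, three biological replicates, DESeq2 with apeglm shrinkage.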

| Sequence | shrunken log2 fold change |
| --- | --- |
| RRIRMRPPRLPRPRPRPCKGPRP | -0.0617 |
| RRIRTRPPRLPRPRPRPQPAPRP | 0.0787 |
| RRIRQRPPRLPRPRPRPILGPRP | 0.0906 |
| RRIRFRPPRLPRPRPRPNMYPRP | -0.712 |
| RRIRGRPPRLPRPRPRPWDVPRP | -0.00788 |
| RRIRHRPPRLPRPRPRPITKPRP | -0.107 |
| RRIRLRPPRLPRPRPRPRGYPRP | 0.262 |
| RRIRQRPPRLPRPRPRPKYRPRP | -0.0976 |
| RRIRPRPPRLPRPRPRPSLQPRP | 0.0128 |
| RRIRNRPPRLPRPRPRPKVMPRP | -0.0516 |
| RRIRVRPPRLPRPRPRPATRPRP | 0.383 |
| RRIRMRPPRLPRPRPRPLQDPRP | 2.56 |
| RRIRDRPPRLPRPRPRPAVWPRP | 1.19 |
| RRIRTRPPRLPRPRPRPFHNPRP | -0.31 |
| RRIRHRPPRLPRPRPRPTAMPRP | 0.148 |
| RRIRLRPPRLPRPRPRPRWNPRP | -0.0729 |
| RRIRRRPPRLPRPRPRPTQPPRP | 0.155 |
| RRIRPRPPRLPRPRPRPWGTPRP | -0.0725 |
| RRIRPRPPRLPRPRPRPCYCPRP | -0.722 |
| RRIRIRPPRLPRPRPRPYQYPRP | -0.19 |
| RRIRTRPPRLPRPRPRPHYYPRP | -0.744 |
| RRIRPRPPRLPRPRPRPDDPPRP | -0.0693 |
| RRIRCRPPRLPRPRPRPNMVPRP | 0.0392 |
| RRIRIRPPRLPRPRPRPSSCPRP | -0.17 |
| RRIRTRPPRLPRPRPRPTAHPRP | 0.0803 |

| Sequence | shrunken log2 fold change |
| --- | --- |
| RRIRRRPPRLPRPRPRPCSGPRP | -0.0988 |
| RRIRIRPPRLPRPRPRPQMWPRP | -0.171 |
| RRIRLRPPRLPRPRPRPHFFPRP | -0.128 |
| RRIRHRPPRLPRPRPRPKVRPRP | -0.0711 |
| RRIRCRPPRLPRPRPRPAIHPRP | -0.248 |
| RRIRLRPPRLPRPRPRPAYPPRP | 0.283 |
| RRIRRRPPRLPRPRPRPWTIPRP | -0.189 |
| RRIRARPPRLPRPRPRPNCLPRP | -0.111 |
| RRIRRRPPRLPRPRPRPFVHPRP | 0.0512 |
| RRIRRRPPRLPRPRPRPGCQPRP | -0.176 |
| RRIRLRPPRLPRPRPRPDMCPRP | -0.0164 |
| RRIRARPPRLPRPRPRPGAPPRP | 0.703 |
| RRIRPRPPRLPRPRPRPSRCPRP | 0.093 |
| RRIRPRPPRLPRPRPRPQFLPRP | -0.164 |
| RRIRKRPPRLPRPRPRPGEVPRP | 0.268 |
| RRIRPRPPRLPRPRPRPLKIPRP | -0.169 |
| RRIRFRPPRLPRPRPRPECCPRP | 0.225 |
| RRIRKRPPRLPRPRPRPHYVPRP | -0.0482 |
| RRIRGRPPRLPRPRPRPIHRPRP | 0.0525 |
| RRIRRRPPRLPRPRPRPMSVPRP | -0.0792 |
| RRIRMRPPRLPRPRPRPTGMPRP | 0.136 |
| RRIRCRPPRLPRPRPRPIMSPRP | -0.128 |
| RRIRYRPPRLPRPRPRPCFKPRP | -0.328 |
| RRIRTRPPRLPRPRPRPDDWPRP | 0.276 |
| RRIRWRPPRLPRPRPRPNCPPRP | -0.125 |

| Sequence | shrunken log2 fold change |
| --- | --- |
| RRIRHRPPRLPRPRPRPTLDPRP | 0.0219 |
| RRIRKRPPRLPRPRPRPEGWPRP | 1.46 |
| RRIRKRPPRLPRPRPRPHALPRP | 0.154 |
| RRIRWRPPRLPRPRPRPKWRPRP | 0.428 |
| RRIRDRPPRLPRPRPRPHKSPRP | -0.17 |
| RRIRVRPPRLPRPRPRPNNMPRP | -0.537 |
| RRIRHRPPRLPRPRPRPMYKPRP | -0.138 |
| RRIRMRPPRLPRPRPRPDATPRP | 3.93 |
| RRIRIRPPRLPRPRPRPKVMPRP | -0.206 |
| RRIRCRPPRLPRPRPRPAGEPRP | 0.598 |
| RRIRLRPPRLPRPRPRPKKQPRP | -0.046 |
| RRIRMRPPRLPRPRPRPFCVPRP | 0.00978 |
| RRIRRRPPRLPRPRPRPIFEPRP | 0.0525 |
| RRIRPRPPRLPRPRPRPIPHPRP | -0.163 |
| RRIRGRPPRLPRPRPRPWRAPRP | 0.311 |
| RRIRQRPPRLPRPRPRPQSSPRP | 0.0994 |
| RRIRYRPPRLPRPRPRPKKRPRP | -0.11 |
| RRIRPRPPRLPRPRPRPLCDPRP | -0.312 |
| RRIRDRPPRLPRPRPRPNMVPRP | 0.136 |
| RRIRVRPPRLPRPRPRPVRMPRP | -0.0731 |
| RRIRPRPPRLPRPRPRPLHWPRP | 0.481 |
| RRIRCRPPRLPRPRPRPCCVPRP | -0.409 |
| RRIRHRPPRLPRPRPRPLKKPRP | -0.157 |
| RRIRLRPPRLPRPRPRPGAEPRP | 0.505 |
| RRIRERPPRLPRPRPRPRKHPRP | 0.0582 |

| Sequence | shrunken log2 fold change |
| --- | --- |
| RRIRCRPPRLPRPRPRPTQLPRP | 0.338 |
| RRIRCRPPRLPRPRPRPMLWPRP | -0.00796 |
| RRIRQRPPRLPRPRPRPVRWPRP | 0.428 |
| RRIRLRPPRLPRPRPRPGQIPRP | 0.207 |
| RRIRARPPRLPRPRPRPCICPRP | -0.0352 |
| RRIRVRPPRLPRPRPRPEMCPRP | -0.0885 |
| RRIRYRPPRLPRPRPRPWGLPRP | -0.0143 |
| RRIRPRPPRLPRPRPRPGGEPRP | 0.601 |
| RRIRVRPPRLPRPRPRPLWFPRP | 0.125 |
| RRIRTRPPRLPRPRPRPFDHPRP | -0.301 |
| RRIRMRPPRLPRPRPRPITTPRP | -0.0401 |
| RRIRQRPPRLPRPRPRPYAIPRP | -0.436 |
| RRIRRRPPRLPRPRPRPTPLPRP | 0.744 |
| RRIRMRPPRLPRPRPRPQPCPRP | 0.376 |
| RRIRWRPPRLPRPRPRPWFGPRP | -0.0254 |
| RRIRLRPPRLPRPRPRPICWPRP | -0.0336 |
| RRIRPRPPRLPRPRPRPSHCPRP | -0.666 |
| RRIRRRPPRLPRPRPRPKVAPRP | 0.0861 |
| RRIRDRPPRLPRPRPRPLIYPRP | -0.653 |
| RRIRNRPPRLPRPRPRPIQYPRP | -0.377 |
| RRIRTRPPRLPRPRPRPNWCPRP | -0.0796 |
| RRIRIRPPRLPRPRPRPHCMPRP | -0.697 |
| RRIRDRPPRLPRPRPRPDHYPRP | -0.183 |
| RRIRFRPPRLPRPRPRPPDMPRP | -0.147 |
| RRIRPRPPRLPRPRPRPMCIPRP | -0.0687 |

| Sequence | shrunken log2 fold change |
| --- | --- |
| RRIRERPPRLPRPRPRPERSPRP | 0.149 |
| RRIRQRPPRLPRPRPRPGDCPRP | -0.0893 |
| RRIRFRPPRLPRPRPRPMPVPRP | -0.0124 |
| RRIRTRPPRLPRPRPRPPRAPRP | 0.786 |
| RRIRRRPPRLPRPRPRPPTQPRP | 0.678 |
| RRIRRRPPRLPRPRPRPNGVPRP | 0.00234 |
| RRIRKRPPRLPRPRPRPLVGPRP | 0.0773 |
| RRIRYRPPRLPRPRPRPQRVPRP | -0.393 |
| RRIRRRPPRLPRPRPRPSLIPRP | -0.118 |
| RRIRHRPPRLPRPRPRPYIVPRP | -0.191 |
| RRIRARPPRLPRPRPRPMWSPRP | 0.0725 |
| RRIRHRPPRLPRPRPRPMWWPRP | 0.177 |
| RRIRDRPPRLPRPRPRPQNQPRP | -0.0268 |
| RRIRKRPPRLPRPRPRPMMTPRP | 0.452 |
| RRIRKRPPRLPRPRPRPNTRPRP | -0.0607 |
| RRIRERPPRLPRPRPRPICNPRP | -1.25 |
| RRIRTRPPRLPRPRPRPEQFPRP | -0.0905 |
| RRIRQRPPRLPRPRPRPGGTPRP | 0.11 |
| RRIRYRPPRLPRPRPRPQISPRP | -0.0191 |
| RRIRPRPPRLPRPRPRPFCAPRP | 0.0563 |
| RRIRCRPPRLPRPRPRPEDWPRP | 0.595 |
| RRIRMRPPRLPRPRPRPSTYPRP | -0.347 |
| RRIRIRPPRLPRPRPRPWHWPRP | -0.0771 |
| RRIRFRPPRLPRPRPRPAEQPRP | 1.16 |
| RRIRGRPPRLPRPRPRPLGGPRP | 0.615 |

| Sequence | shrunken log2 fold change |
| --- | --- |
| RRIRSRPPRLPRPRPRPSYFPRP | -0.687 |
| RRIRCRPPRLPRPRPRPSNYPRP | -0.348 |
| RRIRRRPPRLPRPRPRPTIGPRP | -0.229 |
| RRIRQRPPRLPRPRPRPCKVPRP | -0.101 |
| RRIRERPPRLPRPRPRPHYFPRP | -0.658 |
| RRIRNRPPRLPRPRPRPNASPRP | 0.374 |
| RRIRMRPPRLPRPRPRPNKPPRP | -0.0387 |
| RRIRMRPPRLPRPRPRPYKYPRP | -0.851 |
| RRIRWRPPRLPRPRPRPREIPRP | 0.426 |
| RRIRGRPPRLPRPRPRPTNYPRP | 1.07 |
| RRIRERPPRLPRPRPRPDWTPRP | 0.0763 |
| RRIRQRPPRLPRPRPRPTQQPRP | 0.0196 |
| RRIRERPPRLPRPRPRPQGAPRP | 0.169 |
| RRIRWRPPRLPRPRPRPLTLPRP | -0.00729 |
| RRIRMRPPRLPRPRPRPVHFPRP | 0.602 |
| RRIRTRPPRLPRPRPRPWDLPRP | 0.12 |
| RRIRHRPPRLPRPRPRPEMDPRP | 0.015 |
| RRIRSRPPRLPRPRPRPQLTPRP | -0.136 |
| RRIRKRPPRLPRPRPRPAFKPRP | -0.0132 |
| RRIRIRPPRLPRPRPRPVQQPRP | -0.168 |
| RRIRARPPRLPRPRPRPWINPRP | -0.218 |
| RRIRVRPPRLPRPRPRPSDWPRP | -0.102 |
| RRIRIRPPRLPRPRPRPVNDPRP | -0.00973 |
| RRIRNRPPRLPRPRPRPGYPPRP | 0.0226 |
| RRIRVRPPRLPRPRPRPVVRPRP | 0.129 |
